Measurements taken from patent publication US5847077, “Fungal multisubunit protein complex critical for expression of fungal proteins” (University of Massachusetts Medical Center, dated 1998).

T1: S. cerevisiae TATA-box Binding Protein (yTBP) (S. cerevisiae, UniProt P13393)
T1 sequence: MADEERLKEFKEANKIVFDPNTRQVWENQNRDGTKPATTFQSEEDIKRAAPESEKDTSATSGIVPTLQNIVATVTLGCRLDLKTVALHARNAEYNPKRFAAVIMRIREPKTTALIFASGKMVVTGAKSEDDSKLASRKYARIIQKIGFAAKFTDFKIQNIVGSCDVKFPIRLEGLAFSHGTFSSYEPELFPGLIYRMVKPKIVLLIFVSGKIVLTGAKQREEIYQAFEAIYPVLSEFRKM

B1: yeast TAF-145 (yTAF145), the 145 kD polypeptide of the yTAF complex (other)
chain: MVKQQGSGKTNLANEDEAYEAIFGGEFGSLEIGSYIGGDEGANSKDYTEHLPDAVDFEDEDELADDDDDLPEESDANLHPAMMTMGAYDDVNENGAVLGIDSNSLNMQLPEINGDLSQQFILEDDGGTPATSNALFMGMDANEIHLATETGVLDGSGANEIGHSQLSIGGVNGNDMSINGGFIMEPDMSDGKHKKATKLDLINHEKYLLKKYFPDFEKGKILKWNKLIYRRSVPYHWHSEISRVKKPFMPLNLKFKVQQDDKRLFNSRTISYVAPIYQGKNNLLQSNSSASRRGLIHVSIDELFPIKEQQKKRKIIHDEKTISEDLLIATDDWDQEKIINQGTSSTATLADSSMTPNLKFSGGYKLKSLIEDVAEDWQWDEDMIIDAKLKESKHAELNMNDEKLLLMIEKTNNLAQQKQQLDSSNLILPLNETILQQKFNLSNDDKYQILKKTHQTKVRSTISNLNIQHSQPAINLQSPFYKVAVPRYQLRHFHRENFGSHIRPGTKIVFSKLKARKRKRDKGKDVKESFSTSQDLTIGDTAPVYLMEYSEQTPVALSKRGMANKLINYYRKANEQDTLRPKLPVGETHVLGVQDKSPFWNFGFVEPGHIVPTLYNNMIRAPVFKHDISGTDFLLTKSSGFGISNRFYLRNINHLFTVGQTFPVEEIPGPNSRKVTSMKATRLKMIIYRILNHNHSKAISIDPIAKHFPDQDYGQNRQKVKEFMKYQRDGPEKGLWRLKDDEKLLDNEAVKSLITPEQISQVESMSQGLQFQEDNEAYNFDSKLKSLEENLLPWNITKNFINSTQMRAMIQIHGVGDPTGCGEGFSFLKTSMKGGFVKSGSPSSNNNSSNKKGTNTHSYNVAQQQKAYDEEIAKTWYTHTKSLSISNPFEEMTNPDEINQTNKHVKTDRDDKKILKIVRKKRDENGIIQRQTIFIRDPRVIQGYIKIKEQDKEDVNKLLEEDTSKINNLEELEKQKKLLQLELANLEKSQQRRAARQNSKRNGGATRTENSVDNGSDLAGVTDGKAARNKGKNTTRRCATCGQIGHIRTNKSCPMYSSKDNPASPK
B2: yeast TAF-90 (yTAF90), the 90 kD polypeptide of the yTAF complex (other)
chain: MSQKQSTNQNQNGTHQPQPVKNQRTNNAAGANSGQQPQQQSQGQSQQQGRSNGPFSASDLNRIVLEYLNKKGYHRTEAMLRAESGRTLTPQNKQSPANTKTGKFPEQSSIPPNPGKTAKPISNPTNLSSKRDAEGGIVSSGRLEGLNAPENYIRAYSMLKNWVDSSLEIYKPELSYIMYPIFIYLFLNLVAKNPVYARRFFDRFSPDFKDFHGSEINRLFSVNSIDHIKENEVASAFQSHKYRITMSKTTLNLLLYFLNENESIGGSLIISVINQHLDPNIVESVTAREKLADGIKVLSDSENGNGKQNLEMNSVPVKLGPFPKDEEFVKEIETELKIKDDQEKQLNQQTAGDNYSGANNRTLLQEYKAMNNEKFKDNTGDDDKDKIKDKIAKDEEKKESELKVDGEKKDSNLSSPARDILPLPPKTALDLKLEIQKVKESRDAIKLDNLQLALPSVCMYTFQNTNKDMSCLDFSDDCRIAAAGFQDSYIKIWSLDGSSLNNPNIALNNNDKDEDPTCKTLVGHSGTVYSTSFSPDNKYLLSGSEDKTVRLWSMDTHTALVSYKGHNHPVWDVSFSPLGHYFATASHDQTARLWSCDHIYPLRIFAGHLNDVDCVSFHPNGCYVFTGSSDKTCRMWDVSTGDSVRLFLGHTAPVISIAVCPDGRWLSTGSEDGIINVWDIGTGKRLKQMRGHGKNAIYSLSYSKEGNVLISGGADHTVRVWDLKKATTEPSAEPDEPFIGYLGDVTASINQDIKEYGRRRTVIPTSDLVASFYTKKTPVFKVKFSRSNLALAGGAFRP

Key:
[1] = target: human TATA-box Binding Protein (hTBP) (human, UniProt P20226); assay: Far Western blot of the hydroxylapatite fraction probed with 35S-labelled human TBP
Experimental: (§1) The hydroxylapatite fraction was separated by SDS-PAGE and transferred to Immobilon-P membranes, and blocked in buffer T (0.2M KOAc) containing 0.01% (v/v) NP-40 and 4% BSA for 3 hr at room temperature followed by 2 hr at […]. ^35S-labeled yTBP and hTBP and its mutant derivatives (Ha, I. et al. Genes & Dev. 7, 1021–1032 (1993)) were synthesized in rabbit reticulocyte lysate and wheat germ extract, respectively, and were diluted in incubation buffer (buffer T (0.2) plus 0.01% (v/v) NP-40 and 0.5% BSA). […] The membrane was incubated with probe at […] for 14–18 min, twice in incubation buffer without BSA for 15 min, and rinsed in buffer T (0.2) lacking glycerol for 20 sec. The membrane was air dried, and exposed directly to film for 8–24 hr.
(§2) To identify this subunit, the yTAF complex was examined for TBP binding using an immobilized protein blotting ("Far Western") assay. The hydroxylapatite fraction was fractionated by SDS-PAGE, the polypeptides transferred to nitrocellulose, and the membrane probed with ^35S-labeled yTBP.

[2] = target: T1, S. cerevisiae TATA-box Binding Protein …; assay: Far Western blot of the hydroxylapatite fraction probed with 35S-labelled yTBP
Experimental: as §1, §2

Binder | binding result [1] | binding result [2]
B1 | binds | binds
B2 |  | no binding
